Experimental data: the supplement of paper PMC10126150
± gives the standard deviation of the averaged measurements.

Tested on: ATP
Assay: switch fluorescence ratio, 500 uM ATP over buffer (Cy3 cluster intensity, sum of 5 cycles each) (fold (ratio)); higher = stronger signal-on switching upon ATP binding; sequences stand for … in TCGTCGGCAGCGTCAGATGTGTATAAGAGACAGTTTTTTTTTTTTTTTTTTTTTTTTT…TC
Settings: aptamer strand: ATP DNA aptamer (quencher-CACCTGGGGGAGTATTGCGGAGGAAGG + anchor), 100 nM annealed; ATP concentration: 500 uM
Procedure, shortened: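 Cy3-labelled switching-strand clusters on a modified Illumina MiSeq flow-cell were annealed to 100 nM quencher-labelled ATP aptamer and imaged first in selection buffer, then after 15 min with 500 uM ATP at 22 °C. NaOH stripping and re-annealing separated each of five buffer/ATP cycles, and clusters outside 100-1000 RFU were excluded. The fluorescence ratio sums target-cycle Cy3 intensity over buffer-cycle Cy3 intensity per cluster and averages it per switch-domain sequence.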
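Note: ATP exposure 15 min at 22 °C before imaging.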

Sequence	switch fluorescence ratio
GCGGGTATGT	1.04 ± 0.023
GCGGGTCACC	0.992 ± 0.01
GCGGGTCTGC	0.963 ± 0.028
GCGGTATATG	1.01 ± 0.027
GCGGTCCACG	1.02 ± 0.022
GCGGTGGATG	1.03 ± 0.012
GCGGTGGGGT	1.01 ± 0.018
GCGGTTTTGT	0.998 ± 0.029
GCGTAACTTC	1.01 ± 0.044
GCGTAAGGCC	1.14 ± 0.21
GCGTAAGTTC	0.981 ± 0.011
GCGTAATCTT	0.988 ± 0.035
GCGTATGGAC	1.01 ± 0.02
GCGTATTATT	1.001 ± 0.0043
GCGTATTGCT	0.993 ± 0.016
GCGTCAACTG	1.04 ± 0.023
GCGTCAAGAT	1.04 ± 0.042
GCGTCAAGTG	0.988 ± 0.026
GCGTCGGGCA	0.997 ± 0.027
GCGTCGGGTG	1.019 ± 0.008
GCGTCTAAGG	0.981 ± 0.021
GCGTCTGCGC	0.943 ± 0.085
GCGTGAGGCG	1.01 ± 0.02
GCGTGAGGGG	1.03 ± 0.05
GCGTGATGCC	1.03 ± 0.075

Sequence	switch fluorescence ratio
GCGTGCCTCG	1.02 ± 0.036
GCGTGGTCAG	0.97027 ± 0.00034
GCGTGTGAGC	1 ± 0.012
GCGTTATATT	1 ± 0.018
GCGTTATGTG	1.017 ± 0.01
GCGTTATTTT	1.012 ± 0.0076
GCGTTCCGTA	1.02 ± 0.039
GCGTTGGGAC	1.042 ± 0.0036
GCGTTGTCTG	0.982 ± 0.068
GCGTTGTGGA	1.04 ± 0.02
GCGTTGTTCG	0.99 ± 0.044
GCGTTTAAGA	1.04 ± 0.021
GCGTTTAATG	0.977 ± 0.047
GCGTTTAATT	1.02 ± 0.03
GCGTTTGTGC	1.007 ± 0.01
GCGTTTTATT	0.976 ± 0.017
GCGTTTTGGG	0.979 ± 0.041
GCTAAAACAG	0.985 ± 0.026
GCTAAAAGCT	1.02 ± 0.011
GCTAAAATAG	1.11 ± 0.15
GCTAAAGAAA	0.974 ± 0.028
GCTAACATTT	0.974 ± 0.029
GCTAACCGTA	1.04 ± 0.023
GCTAATTTTT	0.996 ± 0.018
GCTACAGGGG	1.18 ± 0.25

Sequence	switch fluorescence ratio
GCTACCATAT	1.07 ± 0.015
GCTACGATGT	1.01 ± 0.049
GCTACGGGGG	1.02 ± 0.037
GCTACGTGTT	1.053 ± 0.007
GCTACTGGCA	1.003 ± 0.0077
GCTACTTAAA	1.03 ± 0.025
GCTAGGCGGA	1.0381 ± 0.0006
GCTAGGGGAA	0.985 ± 0.031
GCTAGGGGTA	0.987 ± 0.012
GCTAGTATAA	0.987 ± 0.027
GCTAGTCTGA	0.9954 ± 0.0019
GCTATAGAGG	0.9846 ± 0.0072
GCTATAGCGT	0.9958 ± 0.0063
GCTATTCGAA	1.01 ± 0.061
GCTATTCGAC	1.16 ± 0.022
GCTATTGAAA	0.9922 ± 0.0018
GCTATTGGAT	1.01 ± 0.02
GCTATTTACT	1.06 ± 0.076
GCTCAAGGAG	0.9951 ± 0.0066
GCTCACAGAA	1.02 ± 0.019
GCTCATGAAT	1 ± 0.023
GCTCGGGGGG	0.987 ± 0.031
GCTCGGGGTA	1.02 ± 0.013
GCTCGTAGTG	1 ± 0.047
GCTCGTAGTT	1.01 ± 0.046

Sequence	switch fluorescence ratio
GCTCTAATTG	1.008 ± 0.0058
GCTCTACTGG	1.024 ± 0.0021
GCTCTAGATC	1.35 ± 0.07
GCTCTAGTTT	1.02 ± 0.027
GCTCTATGGT	1.006 ± 0.0078
GCTCTATGTG	1.01 ± 0.018
GCTCTGACGG	1.054 ± 0.0086
GCTCTGGGGG	1.03 ± 0.039
GCTCTTCCCG	1.319 ± 0.011
GCTCTTTGCT	0.988 ± 0.044
GCTGAAAGGA	0.999 ± 0.061
GCTGACAGCG	0.959 ± 0.017
GCTGAGAATG	0.999 ± 0.021
GCTGAGTAAC	0.99 ± 0.0017
GCTGATGATA	0.967 ± 0.026
GCTGATGTTC	1.0082 ± 0.001
GCTGCATATA	1.066 ± 0.0095
GCTGCGGTTT	0.993 ± 0.013
GCTGCTGGCC	0.999 ± 0.044
GCTGCTGTTG	1.06 ± 0.049
GCTGGATTGC	0.916 ± 0.048
GCTGGCACAC	1.04 ± 0.021
GCTGGCAGCC	1.01 ± 0.069
GCTGGCGTCA	1 ± 0.05
GCTGGGAGTC	1 ± 0.029

Sequence	switch fluorescence ratio
GCTGGGGCAA	1.01 ± 0.037
GCTGGGGCCC	0.9977 ± 0.005
GCTGGGGCGT	0.9851 ± 0.005
GCTGGGGCTT	0.991 ± 0.014
GCTGGGGGTG	1.01 ± 0.012
GCTGGGTCTT	1.03 ± 0.023
GCTGGGTGCT	0.984 ± 0.015
GCTGGTGCTC	1.06 ± 0.05
GCTGGTTGCT	0.994 ± 0.039
GCTGGTTGGC	0.964 ± 0.016
GCTGTAACGA	0.998 ± 0.017
GCTGTAAGGC	1.01 ± 0.039
GCTGTCAGCG	1.02 ± 0.024
GCTGTCTGGT	1.0181 ± 0.00043
GCTGTGAGTT	0.9821 ± 0.006
GCTGTTGGAG	1.02 ± 0.031
GCTGTTGGGA	0.9968 ± 0.0078
GCTGTTGGTG	1.002 ± 0.0037
GCTGTTTGTA	0.999 ± 0.03
GCTGTTTTTC	0.966 ± 0.03
GCTGTTTTTT	1 ± 0.044
GCTTAAGAGG	1.03 ± 0.017
GCTTAATGT	1 ± 0.083
GCTTATGAAC	1.019 ± 0.0045
GCTTATTGTT	0.99355 ± 0.00014

Sequence	switch fluorescence ratio
GCTTCAGGGG	1.09 ± 0.12
GCTTCCAGGG	1.14 ± 0.094
GCTTCCGGCC	1.15 ± 0.054
GCTTCCTTTT	1.01 ± 0.022
GCTTCGGGGC	1.01 ± 0.016
GCTTCTACAG	1.047 ± 0.01
GCTTCTCACA	0.981 ± 0.028
GCTTCTGGGG	1.03 ± 0.028
GCTTCTTGGC	0.967 ± 0.034
GCTTGAGATT	0.986 ± 0.015
GCTTGCAGTG	0.995 ± 0.033
GCTTGCCAAA	0.998 ± 0.0083
GCTTGCCTAG	0.962 ± 0.038
GCTTGGATCG	0.993 ± 0.022
GCTTGGCTAT	0.989 ± 0.022
GCTTGGGGAT	1.01 ± 0.033
GCTTGGGGCA	0.967 ± 0.024
GCTTGGGGTC	0.953 ± 0.011
GCTTGGGTTC	1 ± 0.018
GCTTGGTCAT	0.9714 ± 0.0035
GCTTGTACAT	0.982 ± 0.018
GCTTGTATTA	0.985 ± 0.016
GCTTGTCGGC	0.99 ± 0.035
GCTTGTGCTG	0.978 ± 0.053
GCTTGTTATG	0.9931 ± 0.007

Sequence	switch fluorescence ratio
GCTTGTTGTT	0.995 ± 0.017
GCTTTAAAAT	1.004 ± 0.0088
GCTTTAATTC	1.029 ± 0.0049
GCTTTAATTG	1.004 ± 0.0097
GCTTTAATTT	1.07 ± 0.045
GCTTTACACC	1.19 ± 0.092
GCTTTAGCAG	1.03 ± 0.02
GCTTTAGGTA	0.9843 ± 0.0058
GCTTTATCGG	0.965 ± 0.025
GCTTTATGAA	1.02 ± 0.054
GCTTTCACGA	0.9879 ± 0.0036
GCTTTCCAGA	0.9949 ± 0.0059
GCTTTCCGGC	1.02 ± 0.078
GCTTTTAGGT	0.968 ± 0.06
GCTTTTGCTG	0.997 ± 0.013
GCTTTTGGCT	0.992 ± 0.023
GCTTTTTGCT	1.012 ± 0.0054
GCTTTTTTAC	1.38 ± 0.32
GGAAAAAAGT	1.02 ± 0.047
GGAAAAAGAT	1.04 ± 0.018
GGAAAAAGCC	0.9562 ± 0.0042
GGAAAATAGG	0.977 ± 0.061
GGAAAATGGG	1.02 ± 0.065
GGAAAGAAGG	1 ± 0.032
GGAAAGACCG	1 ± 0.012

Sequence	switch fluorescence ratio
GGAAATATAG	0.989 ± 0.012
GGAACAGGTG	3.49 ± 2
GGAACATCTG	1.007 ± 0.0071
GGAACATGGG	1.004 ± 0.0024
GGAACCAGGC	1.12 ± 0.032
GGAACCCAGA	0.988 ± 0.021
GGAACCGGTA	1.02 ± 0.012
GGAACGTGGT	0.971 ± 0.017
GGAACTGTCT	1.01 ± 0.013
GGAACTGTGC	0.948 ± 0.12
GGAACTTGTG	0.9732 ± 0.0075
GGAAGAGGAG	0.983 ± 0.014
GGAAGCCACG	1.06 ± 0.022
GGAAGGAGAG	0.986 ± 0.018
GGAAGGAGAT	1.003 ± 0.0093
GGAAGGAGGC	1.02 ± 0.088
GGAAGGGAAA	0.981 ± 0.029
GGAAGGTATG	1.02 ± 0.071
GGAAGTGGTC	1.01 ± 0.059
GGAATAAATG	1.021 ± 0.009
GGAATACGTT	1.08 ± 0.061
GGAATCAGGA	0.991 ± 0.011
GGAATCCGTT	1.027 ± 0.0025
GGAATCTGAT	0.996 ± 0.12
GGAATCTTTT	1.08 ± 0.085
